The target of the test is human epidermal growth factor 2 (HER2)/neu receptor (human) (UniProt P04626). Briefly: cell-based or functional assay.

As for “protein conjugate H43 (ANG4043; trastuzumab conjugated to Angiopep-2) (antibody)”, the IC50 of BT-474 cell proliferation (tritiated thymidine incorporation after 5-day treatment) turned out to be 3.16 nM.
